Measured values: publication PMC2749821 (BMC Biology, 2009)

B1: BMP receptor II (BMPR-II) ectodomain, human (receptor, UniProt Q13873 32-150, looked up)
chain: RLCAFKDPYQQDLGIGESRISHENGTILCSKGSTCYGLWEKSKGDINLVKQGCWSHIGDPQECHYEECVVTTTPPSIQNGTYRFCCCSTDLCNVNFTENFPPPDTTPLSPPHSFNRDET
modifications: N-biotinylated (sulfo-NHS-LC-biotin) where immobilised
notes: also called hBMPR-II
B2: bone morphogenetic protein 7 (BMP7), human (ligand, UniProt P18075 293-431, looked up)
chain: STGSKQRSQNRSKTPKNQEALRMANVAENSSSDQRQACKKHELYVSFRDLGWQDWIIAPEGYAAYYCEGECAFPLNSYMNATNHAIVQTLVHFINPETVPKPCCAPTQLNAISVLYFDDSSNVILKKYRNMVVRACGCH
modifications: biotin (sulfo-NHS-LC-biotin) where immobilised
notes: human BMP7, CHO-cell derived, bought; dimeric ligand; also called hBMP7; source: bought: R&D Systems (CHO-cell derived)
B3: growth and differentiation factor 5 (GDF5), mature part (ligand)
chain: MKRQGKRPSKNLKARCSRKALHVNFKDMGWDDWIIAPLEYEAFHCEGLCEFPLRSHLEPTNHAVIQTLMNSMDPESTPPTCCVPTRLSPISILFIDSANNVVYKQYEDMVVESCGCR
modifications: biotin (sulfo-NHS-LC-biotin) where immobilised
notes: N-terminal Met-Lys added to the mature part; dimeric ligand; source: E. coli, isolated from inclusion bodies, renatured and purified
B4: bone morphogenetic protein 2 (BMP2), mature part, wild type (ligand, human)
chain: MAQAKHKQRKRLKSSCKRHPLYVDFSDVGWNDWIVAPPGYHAFYCHGECPFPLADHLNSTNHAIVQTLVNSVNSKIPKACCVPTELSAISMLYLDENEKVVLKNYQDMVVEGCGCR
modifications: biotin (sulfo-NHS-LC-biotin) where immobilised
notes: N-terminal Met-Ala added to the mature part; dimeric ligand; also called wtBMP2; BMP2wt; source: E. coli, isolated from inclusion bodies, renatured and purified

How the values were obtained:
Settings in all cases: both partners purified
[1] = molecular target: B2; assay: SPR; Biacore 2000; ligands as analyte over biotinylated receptor ectodomains (about 200 RU) on streptavidin-coated CM5 chips; HBS500 (10 mM HEPES pH 7.4, 500 mM NaCl, 3.4 mM EDTA, 0.005% P20), 25°C, 10 μl/min; apparent affinities, 1:2 interaction with avidity
[2] = molecular target: B2; assay: SPR; Biacore 2000; receptor ectodomains as analyte over biotinylated ligands on streptavidin-coated CM5 chips; HBS500, 25°C, 10 μl/min; apparent affinities, 1:1 interaction
[3] = molecular target: T1, activin receptor type II (ActR-II) ectodomain, human (human, UniProt P27037 18-135, N-biotinylated (sulfo-NHS-LC-biotin) where immobilised); assay: SPR; Biacore 2000; ligands as analyte over biotinylated receptor ectodomains (about 200 RU) on streptavidin-coated CM5 chips; HBS500 (10 mM HEPES pH 7.4, 500 mM NaCl, 3.4 mM EDTA, 0.005% P20), 25°C, 10 μl/min; apparent affinities, 1:2 interaction with avidity
T1 construct: also called hActR-II

[4] = molecular target: B1; assay: as above
[5] = molecular target: T1, activin receptor type II (ActR-II) …; assay: SPR; Biacore 2000; receptor ectodomains as analyte over biotinylated ligands on streptavidin-coated CM5 chips; HBS500, 25°C, 10 μl/min; apparent affinities, 1:1 interaction
[6] = molecular target: B1; assay: as above

Binder: B1
- Kd [1]: 40 nM
- koff [1]: 0.024 s⁻¹
- kon [1]: 960000 M⁻¹ s⁻¹
- Kd [2]: 9100 nM
- koff [2]: > 0.1 s⁻¹

Binder: B2
- KD (kin) [3]: 5.1 nM
- Kd [3]: 8 nM
- koff [3]: 0.0062 s⁻¹
- kon [3]: 1.2e+06 M⁻¹ s⁻¹
- KD (kin) [4]: 25 nM
- Kd [5]: 880 nM
- koff [5]: > 0.1 s⁻¹

Binder: B3
- KD (kin) [4]: 36 nM
- Kd [4]: 46 nM
- Kd [6]: 60000 nM

Binder: B4
- KD (kin) [4]: 45 nM
- Kd [4]: 59 nM
- Kd [6]: 13000 nM
